Measured values from the nanobody polyreactivity screen of Harvey et al. (2022).

Assay: yeast display, Sf9 membrane polyspecificity reagent, FACS + sequencing; frameworks hold sequencing errors
Summary of the method: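 Nanobodies came from a synthetic yeast display library in Saccharomyces cerevisiae BJ5465, induced with galactose for 36–48 hours and stained for 1 hour at 4 °C with 10% biotinylated, detergent-solubilized Sf9 membrane reagent. Cells were enriched on streptavidin microbeads and then FACS-sorted, with low and high (top ~1%) gates set on anti-HA fluorescence for expression and streptavidin fluorescence for reagent binding. Each polyreactivity label reflects the gate a clone came from. Genes were amplified by colony PCR, sequenced by MiSeq 2 × 250 and filtered by CDR length.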

Row | Sequence | polyreactivity (PSR sort gate)
1 | QVQLVESGGGLVQAGGSLRLSCAASGSIFRIYAMGWYRQAPGKERELVAAITKRGGSTYYADSVKGRFTISRDNAKNTVYLQMNSLKPEDTAVYYCAARFYSGYSYDYWGHGTQVTVSS | high polyreactivity
2 | QVQLVESGGGLVQAGGSLRLSCAASGSIFRKKAMGWYRQAPGKERELVAAITGTGRTTYADSVKGRFTISRDNAKNTVYLQMNSLKPEDTAVYYCAAEYYYRYSYTNEGDYWGQGTQVTVSS | low polyreactivity
3 | QVQLVESGGGLVQAGGSLRLSCAASGSIFRKNAMGWSRPAPGKERELVAVSTSSGASTYYADSVKGRFTISRDNAKNTVYVQMNSLKPEETAVYYCNAPSFYTKKMYSWGQGTQVTVSS | high polyreactivity
4 | QVQLVESGGGLVQAGGSLRLSCAASGSIFRKNAMGWYRQAPGKERELVAAISSGGGGTYYADSVKGRFTISRDNAKNTVYLQMNSLKPEDTAVYYCNKREGKGGNTKYDYWGLGTQVTVSS | low polyreactivity
5 | QVQLVESGGGLVQAGGSLRLSCAASGSIFRKNAMGWYRQAPGKERELVATISGGGSTTYADSVKGRFTISRDNAKNTVYLQMNSLKPEDTAVYYCAARSTWFQIRYGYWGQGTQVTVSS | high polyreactivity
6 | QVQLVESGGGLVQAGGSLRLSCAASGSIFRKYAMGWYRQATGKERELVAVITTDGSTNYADSVKGRFTISRDNAKNTVYLQMNSLKPEDTAVYYCNAVRSSIGTDNDYWGQGTQVTVSS | low polyreactivity
7 | QVQLVESGGGLVQAGGSLRLSCAASGSIFRLYAKGSYRQAPGKERELVARITTGGSTNYADSVKGRFTISRDNANNTVYLQMNSLKPEDTAVYYSWGVPRRYYYWGQGTQVTVSS | high polyreactivity
8 | QVQLVESGGGLVQAGGSLRLSCAASGSIFRLYAKGWYIQAPGKERELVAAISSGGSTYYADSVKGRFTISRDNAKNTVYLQMNSLKPEDTAVYYCNTAWTYWRYDYWGQGTQVTVSS | high polyreactivity
9 | QVQLVESGGGLVQAGGSLRLSCAASGSIFRLYVMGWYRQAPGKERELVAAITLSGGSTYYADSVKGRFTISRDNAENTVYLQMNSLKPEDTAVYYCNRVTLYDITFDYWGQGTQVTVSS | low polyreactivity
10 | QVQLVESGGGLVQAGGSLRLSCAASGSIFRNNTMGWYRQAPGKERELVAAISGRGTRTSYADSVKGRFTISRDNAKNTVYLQMNSLKPEDTAVYYCAAVYYWRPGWYVRFDYWGQGTQVTVSS | low polyreactivity
11 | QVQLVESGGGLVQAGGSLRLSCAASGSIFRNYAMGWYRQAPGKERELVAAISRSGSSTFYADSVKGRFTISRDNAKNTVYLQMNSLKPEDTAVYYCAAVDYYTLTGYRYYWGQGTQVTVSS | high polyreactivity
12 | QVQLVESGGGLVQAGGSLRLSCAASGSIFRNYAMGWYRQAPGKERELVASIRYSGGRTNYADSVKGRFTISRDNAKNTVYLQMNSLKPEDTAVYYCAADPGYGWQRAYYYWGQGTQVTVSS | high polyreactivity
13 | QVQLVESGGGLVQAGGSLRLSCAASGSIFRPNAMGWNRQAPGKERELVAAINTSDDSTYYADSVKGRFTISRDNAKNTVYLQMNSLKPEDSAVYYCAADPRTYWTHSYYWGQGTQVTVSS | low polyreactivity
14 | QVQLVESGGGLVQAGGSLRLSCAASGSIFRPNAMRWYRQAPGKERELVAAISSGDSTNYADSVKGRFTISRDNAKNTVYLLMNSLKAEDTAVYYCNTDKYSESYRSYEYWGQGTQVTVSS | low polyreactivity
15 | QVQLVESGGGLVQAGGSLRLSCAASGSIFRPNTMGWYRQATGKERELVADIRYRGGGTYYADSVKGRFTITRDNATNTVYLQMNSLKPEDTAVYYCAKASAQWVQFDFWGQGNQVTVSS | high polyreactivity
16 | QVQLVESGGGLVQAGGSLRLSCAASGSIFRPYAMGWYRQAPGKERELVAGITFIGGSTYYADSVKGRFTISRDNAKNTVYLQRNSLKPEDTAVYYCNADVAPGIFYGYDSWGQGTQVTVSS | low polyreactivity
17 | QVQLVESGGGLVQAGGSLRLSCAASGSIFRPYAMGWYRQAPGKERVLVAAISRRGGSTYYADSVKGRFTISRDNAKNTVYLQMNSLKPEDTAVYYCAADHSRPSPYGYGYWGQGTQVTVSS | high polyreactivity
18 | QVQLVESGGGLVQAGGSLRLSCAASGSIFRRNAMGWYRQAPGKERELVAAISSIGSSTYYADSVKGRFTISRDNAKNTVYLQMNSLKPEDTAVYYCAALYVQGTHTYGYWGQGTQVTVSS | high polyreactivity
19 | QVQLVESGGGLVQAGGSLRLSCAASGSIFRRNAMGWYRQAPGKERELVAAITWRGDRTYYADSVKGRFTISRDNAKNTVYLQMNSLKPEDTAVYYCNKLGRIQYDYWGQGTQVTVSS | high polyreactivity
20 | QVQLVESGGGLVQAGGSLRLSCAASGSIFRRYAMGWYRQAPGKEREFVAAITRSGGGTYYADSVKGRFTISRDNAKNTVYLQMNSLKPEDTAVYYCAADAPNFGLYRDKDYDYWGQGTQVTVSS | high polyreactivity
21 | QVQLVESGGGLVQAGGSLRLSCAASGSIFRRYAMGWYRQAPGKERELVAAISRSGSSTYADSVKGRFTISRDNEKNTVYLQMNSLKPEDTEVYYCNRVRLNTEGFDYWGQGTQVTVSS | low polyreactivity

Row | Sequence | polyreactivity (PSR sort gate)
22 | QVQLVESGGGLVQAGGSLRLSCAASGSIFRRYDMGWYRQAPGTERELVAAISSSGGSTYYADSVKGRFTISRDNAKNTVYLQMNILKPEDTAVYYCNTASNRYPGWRAEFDYWGQGTQVTVSS | low polyreactivity
23 | QVQLVESGGGLVQAGGSLRLSCAASGSIFRSNAMGWYRPAPGKERELVAAISRRGGSTYYADSVKGRFTISRDNAKNPVYLQMNSLKPEDTAVYYCAAPTIVSGHDSWGQGTQVTVSS | high polyreactivity
24 | QVQLVESGGGLVQAGGSLRLSCAASGSIFRSNAMGWYRQAPGKERELVAAITSGTRKYYADSVKGRFTISRDNAKNTVYLQMNSLKPEDTAVYYCATKGSKYDRGYWGQGTQVTVSS | high polyreactivity
25 | QVQLVESGGGLVQAGGSLRLSCAASGSIFRSNAMGWYRQPPGKERELVAAITLSGGSTYYADSVKVRFTISRDNAKNTVYLQMNSLKPEDTAVYYCAAAYYLFSIHDYWGQGNQVTVSS | low polyreactivity
26 | QVQLVESGGGLVQAGGSLRLSCAASGSIFRSNTMGWSRQAPGKERELVARISSTGGSTYYADSVKGRFTISRDNAKKTVYLQLNSLKPEDTAVYYCNKVRGINHLYDMNYWGQGTQVTVSS | high polyreactivity
27 | QVQLVESGGGLVQAGGSLRLSCAASGSIFRSYALGWYRQSPGKERELVASISRRGGSTYYADSVKGRFTISRDNAKNTVYLQMNSLKPEDTAVYYCAAVRYNSRVSTTPSEMYYWGQGTQVTVSS | low polyreactivity
28 | QVQLVESGGGLVQAGGSLRLSCAASGSIFRSYAMGWYRQAPGKERELVAAISRRGSSTYYADSVKGRFTISRDNAKNTVYLQMNSLKPEDTAVYYCNRVRYPRVDYWGQGTQVTVSS | high polyreactivity
29 | QVQLVESGGGLVQAGGSLRLSCAASGSIFRSYAMGWYRQAPGKERELVASITRSSGSTYYADSVKGRFTISRDNAKNTVYLQMNSLKPEDTAVYYCNAVVSKSRRFRVDYWGQGTQVTVSS | high polyreactivity
30 | QVQLVESGGGLVQAGGSLRLSCAASGSIFRSYAMGWYRQSPGKERELVASISRRGGSTYYADSVKGRFTISRDNAKNTVYLQMNSLKPEDTAVYYCAAVRYNSRVSTTPSDMYYWGQGTQVTVSS | low polyreactivity
31 | QVQLVESGGGLVQAGGSLRLSCAASGSIFRTYAKGWYRQAPGKERELVATITFGGVSTYYADSVKGRFTISRDNAKNTVYLQMNSLKPEDTAVYYCAADVYTRFWRVYRFDYWGQGTQVTVSS | low polyreactivity
32 | QVQLVESGGGLVQAGGSLRLSCAASGSIFRTYAMGWYRQAPGKERELVATITFGGVSTYYADSVKGRFTISRDNAKITVYLQMNSLKPEDTAVYYCAADVYTRFWRVYRFDYWGQGTQVTVSS | low polyreactivity
33 | QVQLVESGGGLVQAGGSLRLSCAASGSIFRTYAMGWYRQAPGKERELVATITFGGVSTYYADSVKGRFTISRDNAKTTVYVQKTSLKPEDTAVYYCAAEVYTRFWRVYRFDYWGQGTQVTVSS | low polyreactivity
34 | QVQLVESGGGLVQAGGSLRLSCAASGSIFRVYAMGWYRQAPGKERELVAAISTRGGSTYYADSVKGRFTISRDNAKNTVYLQMNSLNPEDTAVYYCAKRWPQYPDYKPMYYWGQGTQVTVSS | high polyreactivity
35 | QVQLVESGGGLVQAGGSLRLSCAASGSIFRVYAMGWYRQAPGKERELVAGISSRGGTSTYYADSVKGRFTISRDNAKNTVYLQMNSLKPEDTAVYYCAVQVRYPGYDYWGQGTQVTVSS | low polyreactivity
36 | QVQLVESGGGLVQAGGSLRLSCAASGSIFRVYVMGWYRQAPGKERELVARIRYRSGRTNYADSVKGRFTISRDNAKNTVYLQMNSLKPEDTAVYYCSADVYWPTAGDYTQKRDYWGLGTQVTVSS | high polyreactivity
37 | QVQLVESGGGLVQAGGSLRLSCAASGSIFRWNAMGSYRQAPGKERELVAVINSSGGSTYYADSVKGRFTISRDNAKNTVYLQMNSLKPEDTAVYYCAAVIYKIIYGQYAYDYWGQGTQVTVSS | low polyreactivity
38 | QVQLVESGGGLVQAGGSLRLSCAASGSIFRWNAMGWYRQAPGKERELVAAIDSGGSTYADSVKGRFTISRDNAKNTVYLQMNSLKPEDTAVYYCAAAIPDEWPYDYWGQGTQVTVSS | low polyreactivity
39 | QVQLVESGGGLVQAGGSLRLSCAASGSIFRWYAMGWYRQAPGKERELVAAISRRGGRTYYADSVKGRFTISRDNAKNTVYLQMNSLKPEDSAVYYCNADFGYRLPGNYWGQGTQVTVSS | low polyreactivity
40 | QVQLVESGGGLVQAGGSLRLSCAASGSIFRWYAMGWYRQAPGKERELVAAISTSGGNTYYADSVKGRFTISRDNAKNTVYLQMNSLKPEDTAVYYCNALWYRSLSYRYDYWGQGTQVTVSS | high polyreactivity
41 | QVQLVESGGGLVQAGGSLRLSCAASGSIFRWYAMGWYRQAPGKERELVAAISYSGGSTYYADSVKGRFTISRDNAKNTVYLQMNSLKPEDTAVYYCARLGWKPITAARDYWGQVTQVTVSS | high polyreactivity
